Patent publication US20080220049A1 (published 2008)
Positions count from the first letter of the chain named.

Experiments:
[1] = biological target: T1, full-length human KDR on cells (human, UniProt P35968 20-1356); experiment: flow cytometry on CHO KDR cells
T1 construct: whole, on cells; also called CHO KDR; CHO-KDR
Procedure: Binding of fibronectin-based scaffold protein to cell-surface KDR and Flk-1 was analyzed simultaneously on VEGF-R2-expressing and control cells by flow cytometry. CHO-pcDNA3 cells (control) were released from their dishes with trypsin-EDTA, washed in Dulbecco's PBS without calcium and magnesium (D-PBS⁻; Invitrogen), and stained for 30 minutes at 37° C. with 1.5 μM CMTMR (5-(and-6)-(((4-chloromethyl)benzoyl)amino)-tetramethylrhodamine) (Molecular Probes). The cells were washed in D-PBS⁻ and incubated for a further 30 minutes at 37° C., and then resuspended in blocking buffer (D-PBS⁻/10% fetal bovine serum) on ice. CHO-KDR or CHO-Flk cells were treated identically except that CMTMR was omitted. […] For cells treated with an anti-KDR mouse monoclonal antibody (Accurate Chemical, Westbury, N.Y.) or an anti-flk-1 goat polyclonal antibody (R&D Systems), the anti-His₆ step was omitted, and antibody binding was detected with the species-appropriate Alexa Fluor 488 conjugated secondary antibody (Molecular Probes). Following staining, cells were resuspended in 200 μl/well D-PBS⁻/1% FBS/1 μg/ml 7-aminoactinomycin D (7-AAD; Molecular Probes) and analyzed by flow cytometry on a FACSCalibur (Becton Dickinson, San Jose, Calif.) equipped with a […] laser. […]

[2] = biological target: T2, mouse vascular endothelial growth factor receptor-2 Fc chimera (Flk-1-Fc) (mouse, UniProt P35918 20-762); experiment: radioactive equilibrium binding assay, % of input at 1 nM Flk-1-Fc
T2 construct: Purchased from R&D Systems; also called mouse VEGF-R2; not shown: Fc portion of the purchased chimera is not described
T2 sequence (P35918 20-762, change not shown): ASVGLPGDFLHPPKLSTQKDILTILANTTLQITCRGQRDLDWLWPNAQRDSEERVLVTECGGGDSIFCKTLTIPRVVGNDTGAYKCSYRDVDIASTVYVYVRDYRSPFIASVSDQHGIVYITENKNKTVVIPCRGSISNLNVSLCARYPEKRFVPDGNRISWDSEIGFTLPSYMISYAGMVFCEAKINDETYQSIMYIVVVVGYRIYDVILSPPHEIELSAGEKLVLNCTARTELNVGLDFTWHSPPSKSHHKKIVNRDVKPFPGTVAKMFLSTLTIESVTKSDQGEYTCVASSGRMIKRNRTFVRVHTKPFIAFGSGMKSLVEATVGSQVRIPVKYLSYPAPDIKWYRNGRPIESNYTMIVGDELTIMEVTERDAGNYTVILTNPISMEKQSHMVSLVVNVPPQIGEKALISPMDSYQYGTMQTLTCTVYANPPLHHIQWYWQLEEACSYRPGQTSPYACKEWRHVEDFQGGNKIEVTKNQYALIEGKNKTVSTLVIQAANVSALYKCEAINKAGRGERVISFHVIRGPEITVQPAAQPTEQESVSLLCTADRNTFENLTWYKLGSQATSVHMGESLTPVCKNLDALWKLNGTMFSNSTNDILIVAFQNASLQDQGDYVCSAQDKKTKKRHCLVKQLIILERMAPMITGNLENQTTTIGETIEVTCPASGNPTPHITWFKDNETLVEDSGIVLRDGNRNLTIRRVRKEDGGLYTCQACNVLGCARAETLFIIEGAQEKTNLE

[3] = biological target: T3, human vascular endothelial growth factor receptor-2 Fc chimera (KDR-Fc) (human, UniProt P35968 20-764); experiment: radioactive equilibrium binding, 1 nM KDR-Fc
T3 construct: range 1-764; bought from R&D Systems; stated range 1-764 counts from the first residue of the precursor; also called human VEGF-R2-Fc; not shown: human IgG1 Fc
Procedure: (§1) To prepare ³⁵S-labeled binding proteins for analysis, mRNA was prepared as described above for RNA-protein fusion production but the linker ligation step was omitted. The mRNA was expressed using rabbit reticulocyte lysate translation kit (Ambion) in the presence of ³⁵S-labeled Met at 30° C. for 1 hour. Expressed protein was purified on M2-agarose Flag beads (Sigma) as described above. This procedure produced the encoded protein without the nucleic acid tail. In a direct binding assay, VEGF-R2-Fc fusions in concentrations ranging from 0 to 200 nM were added to a constant concentration of the purified protein (0.2 or 0.5 nM) and incubated at 30° C. for 1 hour in buffer B. The receptor-binder complexes were captured using Protein A magnetic beads for another 10 minutes at room temperature using a Kingfisher™. The beads were washed with six reaction volumes of buffer B. The protein was eluted from the beads with 100 μL of 0.1 M KOH. 50 μL of the reaction mixture and elution were dried onto a LumaPlate-96 (Packard) and the amount of ³⁵S on the plate was measured using a TopCount NXT instrument (Packard). The amount of fibronectin-based scaffold protein bound to the target was estimated as a percent of radioactivity eluted from Protein A magnetic beads compare to radioactivity in the reaction mixture. Nonspecific binding of fibronectin-based scaffold proteins to the beads was determined by measuring binding in the absence of KDR-Fc and represented less than 1-2% of the input. Specific binding was obtained through subtraction of nonspecific binding from total binding. Data was analyzed using the GraphPad Prizm software (GraphPad Software, Inc, San Diego, Calif.), fitted using a one site, non-linear binding equation.
T3 sequence (P35968 20-764 limits assumed, change not shown, form in doubt): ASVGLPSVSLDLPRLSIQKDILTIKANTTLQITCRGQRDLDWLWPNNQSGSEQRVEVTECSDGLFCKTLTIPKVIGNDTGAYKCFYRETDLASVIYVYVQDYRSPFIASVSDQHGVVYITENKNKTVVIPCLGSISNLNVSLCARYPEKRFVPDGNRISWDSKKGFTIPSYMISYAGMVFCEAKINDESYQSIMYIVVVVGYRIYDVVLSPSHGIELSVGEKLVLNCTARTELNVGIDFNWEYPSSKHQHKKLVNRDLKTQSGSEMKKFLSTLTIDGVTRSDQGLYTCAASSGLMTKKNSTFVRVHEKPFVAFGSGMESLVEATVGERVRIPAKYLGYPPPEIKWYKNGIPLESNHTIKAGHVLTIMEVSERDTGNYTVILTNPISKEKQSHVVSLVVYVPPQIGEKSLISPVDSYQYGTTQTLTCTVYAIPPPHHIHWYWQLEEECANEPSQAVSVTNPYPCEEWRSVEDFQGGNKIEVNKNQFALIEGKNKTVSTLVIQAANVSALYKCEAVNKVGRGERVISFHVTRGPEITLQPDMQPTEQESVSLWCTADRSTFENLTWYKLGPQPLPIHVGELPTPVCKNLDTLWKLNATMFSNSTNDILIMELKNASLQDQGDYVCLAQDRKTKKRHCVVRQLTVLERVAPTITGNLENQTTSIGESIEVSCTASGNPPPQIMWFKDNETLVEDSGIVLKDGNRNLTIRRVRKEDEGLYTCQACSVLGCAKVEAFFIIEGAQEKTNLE

[4] = biological target: T4, human vascular endothelial growth factor receptor-2 Fc chimera (KDR-Fc) (human, UniProt P35968 20-764); experiment: radioactive equilibrium binding, 1 nM KDR-Fc
T4 construct: range 1-764; Bought from R&D Systems; limits 1-764 are stated for the selection target; also called human VEGFR-2; not shown: human IgG1 Fc
Procedure: as §1
T4 sequence (P35968 20-764 limits assumed, change not shown, form in doubt): as above

[5] = biological target: T5, mouse vascular endothelial growth factor receptor-2 Fc chimera (Flk-1-Fc) (mouse, UniProt P35918 20-762); experiment: radioactive equilibrium binding, 1 nM Flk-1-Fc
T5 construct: Bought from R&D Systems; also called mouse VEGFR-2; Fc part of the bought chimera not given
Procedure: as §1
T5 sequence (P35918 20-762, change not shown): as the sequence (P35918 20-762, change not shown) above

T1 sequence (P35968 20-1356): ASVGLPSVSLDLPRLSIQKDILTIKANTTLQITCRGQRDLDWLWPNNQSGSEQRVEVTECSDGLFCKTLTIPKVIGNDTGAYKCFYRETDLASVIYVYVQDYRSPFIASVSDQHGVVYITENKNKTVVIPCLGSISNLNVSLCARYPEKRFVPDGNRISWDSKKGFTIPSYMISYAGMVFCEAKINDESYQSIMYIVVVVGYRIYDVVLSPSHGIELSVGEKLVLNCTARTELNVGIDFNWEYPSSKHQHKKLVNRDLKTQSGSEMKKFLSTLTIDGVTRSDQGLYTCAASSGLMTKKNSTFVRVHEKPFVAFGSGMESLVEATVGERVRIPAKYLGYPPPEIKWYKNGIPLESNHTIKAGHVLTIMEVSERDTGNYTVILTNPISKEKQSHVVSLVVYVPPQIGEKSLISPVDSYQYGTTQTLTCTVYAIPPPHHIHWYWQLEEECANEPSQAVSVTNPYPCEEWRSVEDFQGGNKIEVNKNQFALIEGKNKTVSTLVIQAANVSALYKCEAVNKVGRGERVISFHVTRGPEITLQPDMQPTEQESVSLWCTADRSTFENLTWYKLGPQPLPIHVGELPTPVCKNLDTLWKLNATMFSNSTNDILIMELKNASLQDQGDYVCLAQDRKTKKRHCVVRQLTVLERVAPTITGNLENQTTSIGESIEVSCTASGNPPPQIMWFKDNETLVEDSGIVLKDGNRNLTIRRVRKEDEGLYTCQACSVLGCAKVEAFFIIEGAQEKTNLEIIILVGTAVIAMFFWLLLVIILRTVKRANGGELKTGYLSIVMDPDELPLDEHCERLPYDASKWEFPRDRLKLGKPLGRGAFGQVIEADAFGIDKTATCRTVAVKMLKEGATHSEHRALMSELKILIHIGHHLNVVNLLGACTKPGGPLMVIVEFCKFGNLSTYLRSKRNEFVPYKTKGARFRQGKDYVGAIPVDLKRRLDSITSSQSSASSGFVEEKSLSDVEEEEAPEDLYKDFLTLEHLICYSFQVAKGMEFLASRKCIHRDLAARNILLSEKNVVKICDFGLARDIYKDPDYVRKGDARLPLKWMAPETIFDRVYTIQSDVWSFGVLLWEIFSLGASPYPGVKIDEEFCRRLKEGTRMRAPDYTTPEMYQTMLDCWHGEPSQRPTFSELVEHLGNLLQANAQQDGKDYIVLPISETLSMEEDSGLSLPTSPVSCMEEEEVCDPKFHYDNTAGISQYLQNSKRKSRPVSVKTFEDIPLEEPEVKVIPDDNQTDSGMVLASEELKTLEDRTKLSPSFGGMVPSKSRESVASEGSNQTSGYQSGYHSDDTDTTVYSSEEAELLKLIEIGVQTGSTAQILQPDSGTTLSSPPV

B1: wild type fibronectin-based scaffold protein (tenth type III domain of human fibronectin) (other)
chain: VSDVPRDLEVVAATPTSLLISWDAPAVTVRYYRITYGETGGNSPVQEFTVPGSKSTATISGLKPGVDYTITGYAVTGRGDSPASSKPISINYRT
notes: E. coli produced with His6 tag; also called WT; 10Fn3
binding result [1]: no binding

B2: E2 (designed binder)
chain: EVVAATPTSLLISWRHPHFPTRYYRITYGETGGNSPVQEFTVPLQPPTATISGLKPGVDYTITGYAVTDGPNDRLLNIPISINYRT
notes: 10Fn3 variant, residues 1-8 deleted
Binding to 1 nM FLK, % [2]: 10%

B3: 3′E10 PR4 (designed binder)
chain: B2 chain with D69A, P71H, N72K, R74Q, L75E, N77L, I78T
Binding to 1 nM KDR, % [3]: 21%

B4: D9 (designed binder)
chain: B2 chain with K55R, D69E, G70E, P71R, D73G, L75V, N77F, I78T
notes: Del 1-8; assay tags not included
Binding to 1 nM KDR, % [4]: 31% | Binding to 1 nM Flk-1, % [5]: 40%

B5: 2′Del F6 PR4 (designed binder)
chain: B2 chain with D69L, P71W, R74H, L75E, N77Y
Binding to 1 nM KDR, % [3]: 22%

B6: F6 (designed binder)
chain: B2 chain with D69V, G70E, P71Q, D73G, L75V, N77M, I78T, I82T
notes: Del 1-8; assay tags not included; Framework 4 printed as ISTNYRT
Binding to 1 nM KDR, % [4]: 37% | Binding to 1 nM Flk-1, % [5]: 2%

B7: F5 (designed binder)
chain: B2 chain with K55R, D69V, G70E, P71R, N72D, D73G, L75E
notes: as for B4
Binding to 1 nM KDR, % [4]: 12% | Binding to 1 nM Flk-1, % [5]: 8%
